Results: publication PMC12259851, “Rapid detection and capture of clinical Escherichia coli strains mediated by OmpA-targeting nanobodies” (Communications Biology, 2025)

Tests used:
[1] = target: T1, OmpA-short on clinical E. coli strain CS#2 (Escherichia coli clinical isolate CS#2 …, UniProt P0A910, strain); test: flow cytometry on cells; as a8, CS#2, with EDTA during staining; details: one partner purified
T1 construct: OmpA, short isoform, of clinical isolate CS#2; Dense O-antigen layer; source: endogenous, on cells of clinical E. coli isolate CS#2

[2] = target: T1, OmpA-short on clinical E. coli strain …; test: flow cytometry on cells; as a8, CS#2, with the anticoagulant citrate phosphate dextrose (CPD); details: one partner purified
[3] = target: T1, OmpA-short on clinical E. coli strain …; test: flow cytometry on cells; as a8, CS#2, with the anticoagulant heparin; details: one partner purified
[4] = target: T1, OmpA-short on clinical E. coli strain …; test: flow cytometry on cells; concentration series of Nb01-AF647; cells fixed after staining (2% PFA), CytoFlex S, triplicates; Hill equation; apparent affinity (EC50); cells grown in LB; details: one partner purified
[5] = target: T2, OmpA-short on E. coli K-12 MC1061 cells (Escherichia coli K-12 MC1061, UniProt P0A910); test: as above; details: one partner purified
T2 construct: Strain devoid of O-antigen; source: endogenous, on E. coli MC1061 cells

[6] = target: T3, OmpA-short on clinical E. coli strain CS#1 (Escherichia coli clinical isolate CS#1 …, UniProt P0A910, strain); test: as above; details: one partner purified
T3 construct: OmpA, short isoform, of clinical isolate CS#1; Loose, partially permeable O-antigen layer; also called clinical strain #1; source: endogenous, on cells of clinical E. coli isolate CS#1

[7] = target: T4, OmpA-short on E. coli K1 strain ATCC 11775 (Escherichia coli K1 ATCC 11775, strain); test: as above; details: one partner purified
T4 construct: OmpA, short isoform, of E. coli K1 ATCC 11775; loop regions identical to those of MC1061 OmpA-short; Strain with a K1 polysaccharide capsule; also called E. coli K1 OmpA-short; source: endogenous, on cells of E. coli K1 ATCC 11775
T4 chain: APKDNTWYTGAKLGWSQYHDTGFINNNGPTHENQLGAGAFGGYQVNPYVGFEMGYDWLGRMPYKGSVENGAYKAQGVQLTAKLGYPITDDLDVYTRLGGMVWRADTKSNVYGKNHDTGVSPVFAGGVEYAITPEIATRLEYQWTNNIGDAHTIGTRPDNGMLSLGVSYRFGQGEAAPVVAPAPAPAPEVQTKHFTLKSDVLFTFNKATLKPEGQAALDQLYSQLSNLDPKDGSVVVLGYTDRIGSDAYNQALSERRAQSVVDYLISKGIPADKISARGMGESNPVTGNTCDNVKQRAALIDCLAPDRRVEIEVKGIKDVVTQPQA

[8] = target: T5, OmpF on E. coli K-12 MC1061 cells (Escherichia coli K-12 MC1061, UniProt P02931); test: flow cytometry on cells; Nb18 on the E. coli K12 strain (Supplementary Fig. 11c); conditions not told for this experiment; details: one partner purified
T5 construct: outer membrane protein OmpF, E. coli K-12 MC1061; The homotrimeric state is cited from other work; also called E. coli K12 strain; source: endogenous, on E. coli MC1061 cells

[9] = target: T6, Transmembrane domain of OmpA-short (Escherichia coli K-12 MC1061, UniProt P0A910); test: crystal structure; β-barrel domain of OmpA mixed 1:1.1 with the nanobody, sitting drop vapor diffusion at 20 °C; interface analysed with PDBePISA; details: both partners purified
T6 construct: OmpA, short isoform, E. coli K-12 MC1061, transmembrane (β-barrel) domain; also called β-barrel domain of OmpA-short

T5 sequence (P02931 23-362): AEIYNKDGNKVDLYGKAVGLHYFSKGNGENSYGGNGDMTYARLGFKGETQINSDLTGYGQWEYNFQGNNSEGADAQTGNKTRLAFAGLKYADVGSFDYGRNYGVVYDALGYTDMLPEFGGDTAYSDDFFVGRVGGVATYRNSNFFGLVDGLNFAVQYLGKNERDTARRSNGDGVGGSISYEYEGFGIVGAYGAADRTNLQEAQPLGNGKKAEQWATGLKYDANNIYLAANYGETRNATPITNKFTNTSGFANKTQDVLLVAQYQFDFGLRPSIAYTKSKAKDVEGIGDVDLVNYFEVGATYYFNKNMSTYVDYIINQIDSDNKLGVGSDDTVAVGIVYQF

B1: Nb01-AF647 (VHH)
VHH: QVQLVESGGGLVQPGGSLRLSCVVSGTGFTFSKSPMSWARQAPGKEREWVSAIFADSSTYYSDSVRGRFTISRDNAKNTVYLQMNNVKPEDTAVYYCGHRRLGKTTYDYRGKGTRVTVSA
notes: nanobody Nb01 (alpaca VHH against OmpA-short); also called AlexaFluor647-labeled Nb01; source: E. coli MC1061 ΔompA (pSBinit), periplasmic extraction, purified (Ni-NTA, SEC), labelled with maleimide-AF647
With B1 the EC50 [1] was 4.98 nM, the EC50 [2] was 7.4 nM and the EC50 [3] was 4.7 nM. The EC50 [4] was 61.1 nM, the EC50 [5] was 12.9 nM and the EC50 [6] was 25.9 nM. The EC50 [7] was 84.9 nM.

B2: Nb18 (for flow cytometry) (VHH)
VHH: QRQLVESGGGLVQAGGSLTLSCSATGTVPRIDAMGWYRRSTGKKREQVASVGRGGRTNYSDSAKGRFTISRNGNTVTLQMTSLKPEDTDVYFCNALKYGRNADYDDYWGRGTRVTVSA
notes: nanobody Nb18 (alpaca VHH against OmpF); the flow cytometry methods speak of Alexa Fluor 647-labeled nanobodies (cysteine at the C-terminus, pSBinit with myc- and His-tag); also called OmpF nanobody
With B2 the EC50 [8] was 3 nM.

B3: Nb01 (for X-ray crystallography) (VHH)
VHH: QVQLVESGGGLVQPGGSLRLSCVVSGTGFTFSKSPMSWARQAPGKEREWVSAIFADSSTYYSDSVRGRFTISRDNAKNTVYLQMNNVKPEDTAVYYCGHRRLGKTTYDYRGKGTRVTVSA
notes: nanobody Nb01 (alpaca VHH against OmpA-short); source: E. coli MC1061 ΔompA (pBXNPHM3), purified (Ni-NTA, 3C cleavage, reverse Ni-NTA, SEC)
B3: binds [9].
